Measured values taken from patent US20250109209A1 (ABSCI, published 2025).
Positions count from the first letter of the chain named.

T1: human TL1A (human, UniProt O95150 72-251)
T1 construct: Antigen in SPR and ELISA; Also used here for places that print only 'TL1A' and for endogenous TL1A in human whole blood; also called TNFSF15
T1 sequence (looked up): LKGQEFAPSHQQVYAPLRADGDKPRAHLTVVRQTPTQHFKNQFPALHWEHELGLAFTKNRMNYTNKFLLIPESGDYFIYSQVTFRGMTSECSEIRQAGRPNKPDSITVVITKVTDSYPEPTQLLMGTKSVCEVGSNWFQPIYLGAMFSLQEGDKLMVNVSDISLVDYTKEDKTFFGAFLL

T2: Cyno TL1A (cyno, UniProt G7PRK8 72-251)
T2 sequence: T1 sequence (looked up) with F39L, I78V

B1: Antibody 5 (Fab format) (Fab, V domains shown)
VH: QVQLQESGPGLVRPSQTLSLTCTVSGFDMQDTYMHWVRQRPGRGLEWMGRIEPASGHTKYNPSLKSRVTITRDTSKNQVSLRLSSVTAADTAVYYCVRSGGLPDVWGQGSLVTVSS
VL: DIQMTQSPSSLSASVGDRVTITCRASQGVMYMYWYQQKPGKAPKLLIYGASNLASGVPSRFSGSGSGTDFTFTISSLQPEDIATYYCQQWEGNPRTFGQGTKVEIK
notes: High priority lead, Fab format
B2: Antibody 13 (Fab format) (Fab, V domains shown)
VH: B1 VH with M29Y, E52D, V97A, R98V, L102M
VL: B1 VL with M30E, G49A, A50T
notes: as for B1
B3: Antibody 6 (Fab format) (Fab, V domains shown)
VH: B1 VH with Q30A, S55G, V105M
VL: B1 VL with M30E, G49S
notes: as for B1
B4: Antibody 12 (Fab format) (Fab, V domains shown)
VH: B1 VH with M29I, Q30T, S55G
VL: B1 VL with M30E, G49S
notes: as for B1
B5: Antibody 16 (Fab format) (Fab, V domains shown)
VH: B1 VH with D31S, S55G
VL: B1 VL with M30E
notes: as for B1
B6: Antibody 9 (Fab format) (Fab, V domains shown)
VH: B1 VH with M29I, S55G, V105A
VL: B1 VL with M30G, G49S
notes: as for B1
B7: Antibody 18 (Fab format) (Fab, V domains shown)
VH: B1 VH with Q30G, S55G, L102M
VL: B1 VL with Q27S, G28S, M30S, G49Y
notes: as for B1
B8: Antibody 14 (Fab format) (Fab, V domains shown)
VH: B1 VH with F27L, M29P, Q30D, S55G, R98I
VL: B1 VL with V29I, M30Y
notes: as for B1
B9: Antibody 10 (Fab format) (Fab, V domains shown)
VH: B1 VH with F27L, M29P, Q30D, S55G, R98I
VL: B1 VL with M30E
notes: as for B1
B10: Antibody 15 (Fab format) (Fab, V domains shown)
VH: B1 VH with M29I, S55G, V105A
VL: B1 VL with V29I, M30Y
notes: as for B1
B11: Antibody 8 (Fab format) (Fab, V domains shown)
VH: B1 VH with D31S, S55G
VL: B1 VL with Q27S, G28S, M30S
notes: as for B1
B12: Antibody 17 (Fab format) (Fab, V domains shown)
VH: B1 VH with Q30G, S55A
VL: B1 VL with M30E
notes: as for B1
B13: Antibody 11 (Fab format) (Fab, V domains shown)
VH: B1 VH with Q30G, S55G, L102M
VL: B1 VL with M30E, G49S
notes: as for B1
B14: Antibody 7 (Fab format) (Fab, V domains shown)
VH: B1 VH with Q30G, S55A, V105I
VL: B1 VL with M30E
notes: as for B1

Each binder was assayed against T1, human TL1A (assay: SPR, Fab format, average).

| Binder | Kd [nM] |
| --- | --- |
| B1 | 0.33 |
| B2 | 0.43 |
| B3 | 0.41 |
| B4 | 0.43 |
| B5 | 0.51 |
| B6 | 0.43 |
| B7 | 0.67 |
| B8 | 0.7 |
| B9 | 0.48 |
| B10 | 0.5 |
| B11 | 0.38 |
| B12 | 0.57 |
| B13 | 0.48 |
| B14 | 0.43 |

Each binder was assayed against T2, Cyno TL1A (assay: SPR, Fab format, average).

| Binder | Kd [nM] |
| --- | --- |
| B1 | 0.79 |
| B2 | 0.34 |
| B3 | 0.26 |
| B4 | 1.29 |
| B5 | 0.32 |
| B6 | 1.99 |
| B7 | 1.28 |
| B8 | 4.25 |
| B9 | 1.83 |
| B10 | 1.81 |
| B11 | 3.26 |
| B12 | 0.33 |
| B13 | 0.38 |
| B14 | 1.63 |

The binders below were run against T1, human TL1A (assay: SPR, Fab lysate, average).

| Binder | Kd [nM] |
| --- | --- |
| B1 | 0.33 |
| B2 | 0.43 |
| B3 | 0.41 |
| B4 | 0.43 |
| B5 | 0.51 |
| B6 | 0.43 |
| B7 | 0.67 |
| B8 | 0.7 |
| B9 | 0.48 |
| B10 | 0.5 |
| B11 | 0.38 |
| B12 | 0.57 |
| B13 | 0.48 |
| B14 | 0.43 |

Each binder was assayed against T1, human TL1A (assay: SPR, Fab format).

| Binder | Kd [nM] |
| --- | --- |
| B2 | < 1 |
| B4 | < 1 |
| B5 | < 1 |
| B6 | < 1 |
| B7 | < 1 |
| B8 | < 1 |
| B9 | < 1 |
| B10 | < 1 |
| B12 | < 1 |
| B13 | < 1 |
